From patent US20240025993A1, “CD19 BINDING MOLECULES AND USES THEREOF” (NOVARTIS AG, priority 2020, published 2024)

T1: human CD19 (Homo sapiens, UniProt P15391)
T1 construct: expressed in transfected cells; host or cells: mouse cell line 300.19
T1 sequence (P15391 20-556): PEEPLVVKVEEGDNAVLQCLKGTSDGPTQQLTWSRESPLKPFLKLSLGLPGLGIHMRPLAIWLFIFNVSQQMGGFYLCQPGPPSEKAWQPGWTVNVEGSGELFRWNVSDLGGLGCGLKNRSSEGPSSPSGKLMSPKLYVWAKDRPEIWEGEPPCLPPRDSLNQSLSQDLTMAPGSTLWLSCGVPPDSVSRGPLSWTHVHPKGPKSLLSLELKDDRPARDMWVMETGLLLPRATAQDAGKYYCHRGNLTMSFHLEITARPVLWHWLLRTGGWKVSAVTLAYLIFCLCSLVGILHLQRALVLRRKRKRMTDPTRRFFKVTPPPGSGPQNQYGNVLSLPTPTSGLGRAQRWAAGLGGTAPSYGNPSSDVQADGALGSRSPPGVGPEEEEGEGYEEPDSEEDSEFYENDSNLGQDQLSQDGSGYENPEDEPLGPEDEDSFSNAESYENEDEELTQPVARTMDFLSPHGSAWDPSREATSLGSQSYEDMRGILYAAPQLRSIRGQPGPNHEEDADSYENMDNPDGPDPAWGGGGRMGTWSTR


Assays:
human FcγR1A = human FcγR1A (Homo sapiens, UniProt P12314); assay: SPR binding of Fc modified anti-CD3 IgG1 antibodies (Example 34); conditions: anti-CD3 IgG1 antibody immobilized
Protocol: Surface plasmon resonance (SPR) experiments were performed to analyze the interaction of human activating receptors FcγR1A, FcγR3A (V158) and human C1q with IgG1 WT and antibody-Fc variants. Binding kinetics and their relative binding affinities were explored. The binding affinity is an important characteristic of an interaction between an antibody and an antigen. The equilibrium dissociation constant (KD) defines how strong the interaction is and therefore how much antibody-antigen complex is formed at equilibrium.
The knowledge of the antibody characteristics is not only essential during selection of the best therapeutic antibody candidate, but also important to understand the in vivo behavior and potentially predict cellular immune responses. […] Binding to human C1q was evaluated. […] SPR measurements were measured on a Biacore T200 (GE-Healthcare Life Sciences) controlled by Biacore T200 control software version 2.0.1. […]
The antibodies were covalently immobilized on a CM5 sensor chip whereas Fc gamma receptors or human C1q served as analytes in solution (FIG. 38). […] Zero concentration samples (blank runs) were measured for both methods to allow double-referencing during data evaluation.
Data were evaluated using the Biacore T200 evaluation software. […] In addition, the maximum response reached during the experiment was monitored. […]

[1] = Aggregation propensity (% HMW) by analytical SEC of IgG1 anti-CD3 antibody and Fc variants (Example 35); type: physicochemical; conditions: PBS pH 7.4, anti-CD3 antibodies
Protocol: Size exclusion chromatography measurements were performed to evaluate the aggregation propensity (% HMW) of IgG1 antibody and Fc modified derivatives. The produced and purified anti CD3 antibodies were applied to an analytical size exclusion chromatography column (SEC 200, GE Healthcare), equilibrated with PBS buffer pH 7.4.

[2] = Differential scanning calorimetry, melting temperature of Fc modified anti-CD3 antibodies (Example 35); type: physicochemical; conditions: DSC, 1 mg/ml in PBS pH 7.4, anti-CD3 IgG1 Fc variants
Protocol: Calorimetric measurements were carried out on a differential scanning micro calorimeter (Nano DSC, TA instruments). The cell volume was 0.5 ml and the heating rate was 1° C./min. All proteins were used at a concentration of 1 mg/m in PBS (pH 7.4). The molar heat capacity of each protein was estimated by comparison with duplicate samples containing identical buffer from which the protein had been omitted. The partial molar heat capacities and melting curves were analyzed using standard procedure. Thermograms were baseline corrected and concentration normalized.

cyno CD19 = assay: Binding of TBMs to 300.19 cells overexpressing cyno CD19 (Example 11); conditions: flow cytometry, R variants
Protocol: (§1) The mouse cell line 300.19 was engineered to overexpress either human CD19 or cyno CD19. Cells were cultured in RPMI medium (Invitrogen #11875-093) with 10% FBS and 2-mercaptoethanol. Cells were harvested and resuspended in FACS buffer (PBS containing 1% FBS). 50,000 cells per well were plated in a V-bottom 96-well plate. Each cell line was incubated with serial dilutions of TBMs of Example 1A (i.e., R variants) for one hour on ice. Cells were centrifuged for 4 min at 400×g and washed with FACS buffer. This was repeated twice, and then the cells were incubated with Alexa-647 labeled anti-human Fc secondary antibody (Jackson Immuno #109-605-098) for 30 min on ice. The cells were washed twice, then resuspended in 100 μL of FACS buffer. FACS data was collected on a Beckman Coulter Cytoflex and analysis was performed using CytExpert v2.3.

human CD19 = molecular target: T1, human CD19; assay: Binding of TBMs to 300.19 cells overexpressing human CD19 (Example 11); conditions: flow cytometry, R variants
Protocol: as §1

human FcγR1A, sequence (P12314 16-374): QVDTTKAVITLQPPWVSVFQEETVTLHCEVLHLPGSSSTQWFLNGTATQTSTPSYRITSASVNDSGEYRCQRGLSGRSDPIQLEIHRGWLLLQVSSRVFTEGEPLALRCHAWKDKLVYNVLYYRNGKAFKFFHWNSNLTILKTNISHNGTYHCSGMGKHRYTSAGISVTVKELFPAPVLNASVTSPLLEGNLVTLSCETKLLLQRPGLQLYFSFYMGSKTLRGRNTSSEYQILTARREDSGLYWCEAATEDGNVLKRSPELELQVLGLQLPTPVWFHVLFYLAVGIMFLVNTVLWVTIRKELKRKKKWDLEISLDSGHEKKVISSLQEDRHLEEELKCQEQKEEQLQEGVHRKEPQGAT

Maximum response at 100 nM hFcgammaRIA (RU) (human FcγR1A) | Molecule | (%) higher molecular weight [1] | Melting temperature (Tm) of CH2 domain [2] | binding to cells overexpressing cyno CD19 (cyno CD19) | binding to cells overexpressing human CD19 (human CD19)
13 RU | DAPASK-IgG1: anti-CD3 IgG1 with D265A/P329A/S267K (antibody) heavy: EVQLVESGGGLVQPGGSLKLSCAASGFTFNTYAMNWVRQASGKGLEWVGRIRSKYNNYATYYADSVKDRFTISRDDSKSTLYLQMNSLKTEDTAVYYCVRHGNFGNSYVSWFAYWGQGTLVTVSSASTKGPSVFPLAPSSKSTSGGTAALGCLVKDYFPEPVTVSWNSGALTSGVHTFPAVLQSSGLYSLSSVVTVPSSSLGTQTYICNVNHKPSNTKVDKRVEPKSCDKTHTCPPCPAPELLGGPSVFLFPPKPKDTLMISRTPEVTCVVVAVKHEDPEVKFNWYVDGVEVHNAKTKPREEQYNSTYRVVSVLTVLHQDWLNGKEYKCKVSNKALAAPIEKTISKAKGQPREPQVYTLPPSRDELTKNQVSLTCLVKGFYPSDIAVEWESNGQPENNYKTTPPVLDSDGSFFLYSKLTVDKSRWQQGNVFSCSVMHEALHNHYTQKSLSLSPGK light: QAVVTQEPSLTVSPGGTVTLTCRSSTGAVTTSNYANWVQQKPGQAPRGLIGGTNKRAPWTPARFSGSLLGDKAALTLSGAQPEDEAEYFCALWYSNLWVFGGGTKLTVLGQPKAAPSVTLFPPSSEELQANKATLVCLISDFYPGAVTVAWKADSSPVKAGVETTTPSKQSNNKYAASSYLSLTPEQWKSHRSYSCQVTHEGSTVEKTVAPTECS | 3.6% | 65 °C |  | 
 | NEG258: CD19 antibody/binder; VH SEQ ID NO:13, VL SEQ ID NO:26 (antibody, V domains shown) VH: QVQLVQSGAEVKKPGASVKVSCKASGYTFTTYWIQWVRQAPGQRLEWMGAVYPGDADTRYTQKFQGRVTLTADRSASTAYMELSSLRSEDTAVYYCGRDAGLEYYALDYWGQGTLVTVSS VL: EIVMTQSPATLSVSPGERATLSCRASQDVGTAVAWYQQKPGQAPRLLIYWASTRHTGIPARFSGSGSGTEFTLTISSLQSEDFAVYFCQQYANFPLYTFGQGTKLEIK |  |  | greater affinity for both human CD19 and cyno CD19 | greater affinity for both human CD19 and cyno CD19
